The values that follow come from PMC5599796, “Structural insights into transcription initiation by yeast RNA polymerase I” (The EMBO Journal, 2017).

One assay deals with T1, Rrn7 (yeast, UniProt P40992 1-514).
T1 construct: Rrn7, TFIIB-like subunit of yeast Core Factor; Stood in the assay as a subunit of CF within the Pol I PIC; also called CF subunit Rrn7; TFIIB-related subunit Rrn7; source: E. coli BL21(DE3)Star pRARE, co-expressed as Core Factor, purified
T1 sequence: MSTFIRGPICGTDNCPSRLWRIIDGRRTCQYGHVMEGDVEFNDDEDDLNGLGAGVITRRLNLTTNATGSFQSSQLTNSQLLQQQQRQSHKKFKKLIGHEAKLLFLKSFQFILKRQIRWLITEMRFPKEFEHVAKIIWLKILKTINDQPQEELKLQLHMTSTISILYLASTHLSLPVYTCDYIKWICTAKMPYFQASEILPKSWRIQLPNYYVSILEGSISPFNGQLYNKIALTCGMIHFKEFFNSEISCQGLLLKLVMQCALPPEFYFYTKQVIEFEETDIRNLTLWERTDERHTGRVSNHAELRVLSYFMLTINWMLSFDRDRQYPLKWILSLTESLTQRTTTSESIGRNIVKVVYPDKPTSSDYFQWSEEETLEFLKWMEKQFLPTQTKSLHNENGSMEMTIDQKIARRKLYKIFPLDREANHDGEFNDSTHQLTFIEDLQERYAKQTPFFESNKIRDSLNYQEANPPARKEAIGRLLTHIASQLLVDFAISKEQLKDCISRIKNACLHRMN
The experiment in a line: cross-linking; purified Pol I PIC (50 ug, 1 mg/ml) with H12/D12 DSS at 2 and 5 mM, 30 min at 37°C; LC-MS/MS, xQuest, LD score at least 23. The conditions noted are these: both partners purified.

The target of the next assay is T2, A135 (S. cerevisiae (endogenous in strain …, UniProt P22138 1-1203)).
T2 construct: A135, second largest subunit of yeast RNA polymerase I; Stood in the assay as a subunit of Pol I within the PIC; also called second largest subunit of Pol I; source: purified from S. cerevisiae strain SC1613 as a subunit of Pol I
T2 sequence (looked up): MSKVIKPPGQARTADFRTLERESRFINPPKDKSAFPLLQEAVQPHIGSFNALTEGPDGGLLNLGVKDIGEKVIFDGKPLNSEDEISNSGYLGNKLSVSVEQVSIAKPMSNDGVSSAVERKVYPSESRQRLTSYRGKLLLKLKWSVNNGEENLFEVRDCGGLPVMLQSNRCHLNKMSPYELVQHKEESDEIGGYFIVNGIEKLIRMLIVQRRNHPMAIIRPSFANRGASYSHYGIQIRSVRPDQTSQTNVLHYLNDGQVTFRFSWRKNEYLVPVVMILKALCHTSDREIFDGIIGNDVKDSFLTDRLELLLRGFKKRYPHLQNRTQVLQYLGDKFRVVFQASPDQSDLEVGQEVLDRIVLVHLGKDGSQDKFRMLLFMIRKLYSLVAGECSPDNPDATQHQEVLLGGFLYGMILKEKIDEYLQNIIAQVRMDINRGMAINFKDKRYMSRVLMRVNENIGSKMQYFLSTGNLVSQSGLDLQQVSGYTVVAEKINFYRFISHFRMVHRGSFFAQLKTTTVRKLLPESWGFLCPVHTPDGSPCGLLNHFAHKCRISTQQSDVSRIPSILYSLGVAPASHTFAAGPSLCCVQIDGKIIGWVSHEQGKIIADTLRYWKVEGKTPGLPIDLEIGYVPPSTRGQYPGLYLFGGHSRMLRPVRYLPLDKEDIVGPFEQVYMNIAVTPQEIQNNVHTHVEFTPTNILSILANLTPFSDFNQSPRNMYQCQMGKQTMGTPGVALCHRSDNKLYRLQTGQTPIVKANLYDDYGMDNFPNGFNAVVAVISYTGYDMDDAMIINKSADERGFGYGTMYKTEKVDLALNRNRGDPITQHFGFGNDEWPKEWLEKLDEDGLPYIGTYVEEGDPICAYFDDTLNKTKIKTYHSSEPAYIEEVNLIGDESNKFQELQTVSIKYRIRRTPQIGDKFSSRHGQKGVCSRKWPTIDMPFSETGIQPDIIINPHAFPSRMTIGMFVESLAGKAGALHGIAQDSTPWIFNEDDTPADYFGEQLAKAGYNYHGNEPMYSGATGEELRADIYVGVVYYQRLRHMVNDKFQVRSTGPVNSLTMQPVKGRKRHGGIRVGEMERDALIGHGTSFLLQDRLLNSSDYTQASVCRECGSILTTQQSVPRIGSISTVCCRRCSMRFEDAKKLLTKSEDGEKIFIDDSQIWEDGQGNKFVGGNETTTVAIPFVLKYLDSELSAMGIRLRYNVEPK
Description: cryo-EM structure; Pol I (1.5 uM) and Rrn3 (3 uM) mixed 5 h at 4°C, then 70-bp transcription scaffold (-50 to +20, 15-nt mismatch, 10-nt RNA) 1 h, then CF (1.5 uM); dialysed from 300 to 100 mM potassium acetate, 50 mM HEPES-NaOH pH 7.5, 5 mM magnesium acetate, 10 mM DTT; 38,589 particles, 4.4 Å. To be noted: both partners purified.

B1: Rpb12 (natural protein, UniProt P40422 1-70, looked up)
chain: MSREGFQIPTNLDAAAAGTSQARTATLKYICAECSSKLSLSRTDAVRCKDCGHRILLKARTKRLVQFEAR
notes: Rpb12, subunit of yeast RNA polymerase I; Stood in the assay as a subunit of Pol I within the PIC; source: purified from S. cerevisiae strain SC1613 as a subunit of Pol I
B1: the binding result with Rrn7 was “binds”.

B2: Rrn11 (natural protein, yeast)
chain: MFEVPITLTNRKFAQRRKLKYQYINYISRRFDRISKKSTTTDSLPTPENSAAENNDEEEGQNSEAGTYRRSVLQQKKRRRERHWRSVVGEIYSTTESETDSQEEETEEGGEHDTGIDKEDSDEERKFWKKYEKPEKSFEIWRTVSSQNKQPINKQKMTYHNFKKIEKIPLRKMEIPLLHCTKENKLYFQSISRGLEPLKTSTSEVRNYRTRHIVTLTDLLHLNVSRHNWSLAYKIFATLIRIPGVQIKSLWGIGVEILDNLSNSSSGLDFLQWMCQIYSSKSRFVQNINYRSIVPPFQTGSRTHTAKFAITYLWSSLINCQKSMEPSSNIIDKPFDTENDLLQELIDKISEWVLTPPFMEDAEVWFIYASCHLLKADTLSRQFVNDNKNNDLIGLDRDIKINQVIKHIHYVRTFLKICLDKGGFAVPSRLIENQLKSFESRLYGEAQDIQERDVANVYDSIDNSSVENSFGDVYETNAEFLDTQLMDLSPEDNGLDEMHYSDEDSSE
notes: Rrn11, subunit of yeast Core Factor; Stood in the assay as a subunit of CF within the Pol I PIC; also called CF subunit Rrn11; source: E. coli BL21(DE3)Star pRARE, co-expressed as Core Factor, purified
As to B2, in the assay with A135, the binding result is on record as “binds”.
